Laboratory results: the supplement of paper PMC10567573

B1: RIPK4 (parent)
chain: AAWQGHLPIVKLLAKQPGVSVNAQ

Variants of: B1
Experiment: protein stability index of a GFP-peptide fusion (GPS, HEK-293T) (PSI 1-6); higher = more stable
Conditions: c terminus: a fixed tail appended
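Further: lentivirally expressed fusions sorted by FACS into six bins by GFP to DsRed ratio, PSI derived from sequencing read proportions per bin multiplied by bin number.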

Variant | protein stability index
AAWQGHLPIVKLLAKYPGVSVNAQ | 1.97
AAWQGHLPIVKLLAKWPGVSVNAQ | 1.55
AAWQGHLPIVKLLAKRPGVSVNAQ | 2.26
AAWQGHLPIVKLLAKSPGVSVNAQ | 2.56
AAWQGHLPIVKLLAKTPGVSVNAQ | 2.5
AAWQGHLPIVKLLAKVPGVSVNAQ | 2.14
AAWQGHLPIVKLLAKQHGVSVNAQ | 1.82
AAWQGHLPIVKLLAKQFGVSVNAQ | 1.53
AAWQGHLPIVKLLAKQTGVSVNAQ | 1.83
AAWQGHLPIVKLLAKQLGVSVNAQ | 2.58
AAWQGHLPIVKLLAKQYGVSVNAQ | 3.38
AAWQGHLPIVKLLAKQEGVSVNAQ | 3.58
AAWQGHLPIVKLLAKQCGVSVNAQ | 1.92
AAWQGHLPIVKLLAKQNGVSVNAQ | 2.54
AAWQGHLPIVKLLAKQMGVSVNAQ | 2.5
AAWQGHLPIVKLLAKQSGVSVNAQ | 2.46
AAWQGHLPIVKLLAKQGGVSVNAQ | 2.22
AAWQGHLPIVKLLAKQQGVSVNAQ | 2.37
AAWQGHLPIVKLLAKQDGVSVNAQ | 2.15
AAWQGHLPIVKLLAKQAGVSVNAQ | 1.51
AAWQGHLPIVKLLAKQWGVSVNAQ | 2.91
AAWQGHLPIVKLLAKQKGVSVNAQ | 2.45
AAWQGHLPIVKLLAKQPAVSVNAQ | 2.67
AAWQGHLPIVKLLAKQPSVSVNAQ | 2.54

Variant | protein stability index
AAWQGHLPIVKLLAKQPQVSVNAQ | 2.53
AAWQGHLPIVKLLAKQPMVSVNAQ | 1.61
AAWQGHLPIVKLLAKQPCVSVNAQ | 1.72
AAWQGHLPIVKLLAKQPHVSVNAQ | 2.55
AAWQGHLPIVKLLAKQPWVSVNAQ | 1.36
AAWQGHLPIVKLLAKQPTVSVNAQ | 2.54
AAWQGHLPIVKLLAKQPFVSVNAQ | 1.51
AAWQGHLPIVKLLAKQPPVSVNAQ | 2.28
AAWQGHLPIVKLLAKQPIVSVNAQ | 2.01
AAWQGHLPIVKLLAKQPDVSVNAQ | 3.03
AAWQGHLPIVKLLAKQPVVSVNAQ | 1.92
AAWQGHLPIVKLLAKQPYVSVNAQ | 2.08
AAWQGHLPIVKLLAKQPRVSVNAQ | 1.69
AAWQGHLPIVKLLAKQPNVSVNAQ | 2.07
AAWQGHLPIVKLLAKQPLVSVNAQ | 2.07
AAWQGHLPIVKLLAKQPKVSVNAQ | 2.46
AAWQGHLPIVKLLAKQPGWSVNAQ | 1.61
AAWQGHLPIVKLLAKQPGNSVNAQ | 2.61
AAWQGHLPIVKLLAKQPGSSVNAQ | 3.22
AAWQGHLPIVKLLAKQPGMSVNAQ | 2.3
AAWQGHLPIVKLLAKQPGYSVNAQ | 1.75
AAWQGHLPIVKLLAKQPGTSVNAQ | 2.46
AAWQGHLPIVKLLAKQPGHSVNAQ | 2.65
AAWQGHLPIVKLLAKQPGKSVNAQ | 2.73

Variant | protein stability index
AAWQGHLPIVKLLAKQPGRSVNAQ | 3.3
AAWQGHLPIVKLLAKQPGGSVNAQ | 1.85
AAWQGHLPIVKLLAKQPGCSVNAQ | 2.66
AAWQGHLPIVKLLAKQPGLSVNAQ | 2.04
AAWQGHLPIVKLLAKQPGDSVNAQ | 3.35
AAWQGHLPIVKLLAKQPGFSVNAQ | 1.7
AAWQGHLPIVKLLAKQPGPSVNAQ | 3.08
AAWQGHLPIVKLLAKQPGVSVWAQ | 1.36
AAWQGHLPIVKLLAKQPGVSVDAQ | 2.48
AAWQGHLPIVKLLAKQPGVSVSAQ | 3.35
AAWQGHLPIVKLLAKQPGVSVKAQ | 2.29
AAWQGHLPIVKLLAKQPGVSVFAQ | 1.55
AAWQGHLPIVKLLAKQPGVSVQAQ | 1.98
AAWQGHLPIVKLLAKQPGVSVLAQ | 2.06
AAWQGHLPIVKLLAKQPGVSVPAQ | 2.19
AAWQGHLPIVKLLAKQPGVSVAAQ | 2.15
AAWQGHLPIVKLLAKQPGVSVIAQ | 2.22
AAWQGHLPIVKLLAKQPGVSVMAQ | 2.61
AAWQGHLPIVKLLAKQPGVSVHAQ | 2.37
AAWQGHLPIVKLLAKQPGVSVVAQ | 3.92
AAWQGHLPIVKLLAKQPGVSVRAQ | 1.98
AAWQGHLPIVKLLAKQPGVSVYAQ | 1.39
AAWQGHLPIVKLLAKQPGVSVTAQ | 2.58
AAWQGHLPIVKLLAKQPGVSVGAQ | 1.98

Variant | protein stability index
AAWQGHLPIVKLLAKQPGVSVCAQ | 1.89
AAWQGHLPIVKLLAKQPGVSVNAC | 2.19
AAWQGHLPIVKLLAKQPGVSVNAS | 2.69
AAWQGHLPIVKLLAKQPGVSVNAV | 3.06
AAWQGHLPIVKLLAKQPGVSVNAM | 1.86
AAWQGHLPIVKLLAKQPGVSVNAI | 1.61
AAWQGHLPIVKLLAKQPGVSVNAE | 3.17
AAWQGHLPIVKLLAKQPGVSVNAK | 2.78
AAWQGHLPIVKLLAKQPGVSVNAW | 1.58
AAWQGHLPIVKLLAKQPGVSVNAH | 1.93
AAWQGHLPIVKLLAKQPGVSVNAN | 2.39
AAWQGHLPIVKLLAKQPGVSVNAD | 3.29
AAWQGHLPIVKLLAKQPGVSVNAR | 3.16
AAWQGHLPIVKLLAKQPGVSVNAF | 2.07
AAWQGHLPIVKLLAKQPGVSVNAA | 2.08
AAWQGHLPIVKLLAKQPGVSVNAP | 1.89
AAWQGHLPIVKLLAKQPGVSVNAT | 1.93
AAWQGHLPIVKLLAKQPGVSVNAL | 2.83
AAWQGHLPIVKLLAKQPGVSVNAG | 1.93
AAWQGHLPIVKLLAKQPGVSVNAY | 1.5
AAWQGHLPIVKLLAKQPGVSVNRQ | 2.64
AAWQGHLPIVKLLAKQPGVSVNSQ | 2.52
